One series deals with T1, Cas12i2 E563R (E563R).
T1 chain: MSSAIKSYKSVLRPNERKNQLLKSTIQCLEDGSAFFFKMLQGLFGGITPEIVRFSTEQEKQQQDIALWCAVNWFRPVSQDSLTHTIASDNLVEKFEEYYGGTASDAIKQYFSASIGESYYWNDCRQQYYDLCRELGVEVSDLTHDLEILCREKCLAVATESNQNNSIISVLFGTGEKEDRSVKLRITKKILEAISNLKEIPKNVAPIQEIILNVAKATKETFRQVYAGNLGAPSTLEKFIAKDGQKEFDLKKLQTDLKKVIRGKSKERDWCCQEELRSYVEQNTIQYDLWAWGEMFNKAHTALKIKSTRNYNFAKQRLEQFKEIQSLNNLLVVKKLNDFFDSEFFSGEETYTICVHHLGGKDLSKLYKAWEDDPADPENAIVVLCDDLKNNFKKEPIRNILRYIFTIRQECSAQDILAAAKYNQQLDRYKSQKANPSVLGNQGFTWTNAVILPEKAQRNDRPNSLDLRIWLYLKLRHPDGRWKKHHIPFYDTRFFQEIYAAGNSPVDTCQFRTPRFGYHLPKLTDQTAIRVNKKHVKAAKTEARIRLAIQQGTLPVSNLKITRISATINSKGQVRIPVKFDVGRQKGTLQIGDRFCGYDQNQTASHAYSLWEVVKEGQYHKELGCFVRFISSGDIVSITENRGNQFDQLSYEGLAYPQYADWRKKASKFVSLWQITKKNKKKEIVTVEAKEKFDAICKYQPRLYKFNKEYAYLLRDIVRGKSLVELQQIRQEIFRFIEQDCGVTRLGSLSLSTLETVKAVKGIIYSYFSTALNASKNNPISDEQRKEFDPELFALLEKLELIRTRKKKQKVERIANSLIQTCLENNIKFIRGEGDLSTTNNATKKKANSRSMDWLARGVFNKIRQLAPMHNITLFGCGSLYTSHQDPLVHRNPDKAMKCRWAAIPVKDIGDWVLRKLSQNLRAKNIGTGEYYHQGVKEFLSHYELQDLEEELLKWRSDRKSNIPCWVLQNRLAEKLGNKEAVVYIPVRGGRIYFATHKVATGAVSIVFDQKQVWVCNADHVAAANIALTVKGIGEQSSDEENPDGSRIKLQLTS
Briefly: cell_activity; HEK293T. The protocol: (§1) HEK293T cells were cultured in DMEM (Gibco) comprising 1% penicillin-streptomycin (Gibco) and 10% fetal calf serum (Gibco). Cells were seeded in 24-well cell culture dishes (Corning) for 16 hours until cell density reached 70%. By using Lipofectamine 3000 (Invitrogen), 600 ng of plasmid encoding Cas12i2 protein and 300 ng of plasmid encoding crRNA were transfected into each 24-well cell culture dish. After approximately 68 hours of transfection, HEK293T cells to be subjected to fluorescence-activated cell sorting (FACS) were digested with trypsin-EDTA (0.05%) (Gibco). Cell sorting was performed using MoFlo XDP (Beckman Coulter) with GFP channel.
(§2) FACS-sorted GFP-positive HEK293T cells were lysed with buffer L and incubated at 55° C. for 3 h and then at 95° C. for 10 min. PCR amplification of dsDNA fragments comprising target sites in different genomic sites was performed using corresponding primers. For targeted deep sequencing, cell lysate was directly used as a template to directly amplify the target site through barcoded PCR. PCR products were purified and pooled into several libraries for high-throughput sequencing. The frequency (%) of indels was analyzed using CRISPResso2 software by calculating the ratio of reads comprising indels. In this application, the index of indel frequency (%) was uniformly used to compare and analyze gene editing efficiency. Reads with less than 0.05% of complete reads are discarded.

A further series deals with T2, Cas12i2 wild-type.
T2 chain: T1 chain with R563E
In words: cell_activity; HEK293T. The protocol: as §1, §2

Where a chain is given by its changes, count along the chain named.

B1: crRNA RNF2-7 ; RNF2-7 target (ssRNA ; dsDNA)
RNA: AGAAAUCCGUCUUUCAUUGACGGUUCAACAUAUCCAAACAAAU
DNA 1: TTCAACATATCCAAACAAAT
DNA 2: ATTTGTTTGGATATGTTGAA
Turning to B1, the activity with Cas12i2 E563R is 68.3 % indel; in the series with Cas12i2 wild-type, 11.7 % indel.

B2: crRNA CCR5-3 ; CCR5-3 target (ssRNA ; dsDNA)
RNA: AGAAAUCCGUCUUUCAUUGACGGAGGCCAAAGAAUUCCUGGAA
DNA 1: AGGCCAAAGAATTCCTGGAA
DNA 2: TTCCAGGAATTCTTTGGCCT
Regarding B2, the values for the activity with Cas12i2 E563R and with Cas12i2 wild-type were 55.5 % indel and 10.4 % indel, respectively.

The record behind these values is patent publication US20240425830, “ENGINEERED CAS12I NUCLEASE, EFFECTOR PROTEIN AND USE THEREOF” (Institute of Zoology, Chinese Academy of Sciences, published 2024).
